Results: US20210253725A1 (BIONTECH, published 2021)
Positions count from the first letter of the chain named. In names and notes the source's numbering stands.

T1: CD27 protein (His-tagged, Sino Biological Inc. 10039-H08B1) (human, UniProt P26842 20-192)
T1 construct: bought; coated onto ELISA plates; also called human CD27; recombinant protein; not shown: His tag
T1 sequence (looked up): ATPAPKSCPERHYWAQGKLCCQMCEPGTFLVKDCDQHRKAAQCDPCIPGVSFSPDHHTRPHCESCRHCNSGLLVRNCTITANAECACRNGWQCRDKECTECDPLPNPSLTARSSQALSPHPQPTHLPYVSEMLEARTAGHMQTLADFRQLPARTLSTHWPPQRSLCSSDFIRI

T2: CD27 expressed on the cell surface (HT1080_CD27 cells) (human, UniProt P26842 20-260)
T2 construct: whole, on cells; also called K562_CD27
T2 sequence (looked up): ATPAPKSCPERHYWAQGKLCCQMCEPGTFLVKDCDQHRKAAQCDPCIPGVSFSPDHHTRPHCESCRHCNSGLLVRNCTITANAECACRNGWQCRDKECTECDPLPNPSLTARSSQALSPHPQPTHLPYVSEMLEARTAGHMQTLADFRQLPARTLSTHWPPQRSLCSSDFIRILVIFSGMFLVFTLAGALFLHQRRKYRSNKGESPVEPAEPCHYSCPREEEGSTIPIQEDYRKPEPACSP

B1: P018.S.06.A.F04 (antibody, V domains shown)
VH: QQQLEESGGGLVKPEGSLTLTCKASGFTLSSYLMCWVRQAPGKGLELIGCIGTYSGATYYGSWAKDRFTIAKTSSTTVTLQMTSLTAADTATYFCARDYNFALWGPGTLVTVSS
VL: AIVMTQTPSSKSVPVGDTVTINCQASESVYNNNYLSWFQQKPGQPPKLLIYGASTLTSGVPSRFKGSGSGTQFTLTISDVVSDDAATYYCAGYKSSWTDGNAFGGGTEVVVK
notes: V regions on human Ig constant parts; also called AB27_109
B2: P018.S.10.A.B01 (antibody, V domains shown)
VH: QSLEESGGRLVTPGTPLTLTCTASGFSLSSYYMSWVRQAPGKGLEWIGIIDRAGTTYYATWAKGRFTISRTSTTVDLKMTSPTTEDTGTYFCARNFIYGVGTYYGSDLWGQGTLVTVSS
VL: DVVMTQTPASVSDPVGGTVTIKCQASESISRRLAWYQQKPGQPPKLLIYGASDLASGVPSRFSGSGSGTEFTLTISGVQSDDAATYYCQDTDYGSGHLGAFGGGTEVVVK
notes: V regions on human Ig constant parts; also called AB27_166
B3: P018.S.03.A.H03 (antibody, V domains shown)
VH: QSLEESGGDLVKPEGSLTLTCTASGLDFSSSYWICWVRQAPGKGLEWIACIHAGSSGTTHYATWAKGRFTISKTSSTTVTLQMTSLTAADTATYFCARGAVYGGGSYDNFNLWGPGTLVTVSS
VL: AYDMTQTPASVEVAVGGTVTIKCQASQSIGTYLSWYQQKPGQPPKLLIYAASTLASGVQPRFKGSGSGTQFTLTISGVQSDDAATYYCQQGYSADNVANSFGGGTEVVVK
notes: V regions on human Ig constant parts; also called AB27_61
B4: P018.S.03.A.H02 (antibody, V domains shown)
VH: QSLEESGGRLMTPGGSLTLTCTVSGFSLSDYNMQWVRQAPGEGLEWIGIISLGGTTDYANWVKGRFTISKTSTTVDLKMTSLTASDTATYFCARDPAGGNWAELDLWGQGTLVTVSS
VL: DIVMTQTPASVSEPVGGTVTIKCQASQSISSWLSWFQQKPGQPPKLLIYDASTLASGVPSRFKGSGSGTEFTLTISDLESADAATYYCQQGSTISNVDNAFGGGTEVVVK
notes: V regions on human Ig constant parts; also called AB27_60
B5: P018.S.04.A.C05 (antibody, V domains shown)
VH: QSVEESGGRLVTPGTPLTLTCTVSGFSLNYYSMAWVRQVPGEGLEWIGTINTGGGTYYASWAKGRFTISKTSTTVDLKMTSLTAADTATYFCARSDGTGITYYNLWGQGALVTVSS
VL: ALVMTQTASPVSAAVGGTVTINCQASETIYSNLAWYQQKQGQPPKLLIYRASNLASGVPSRFSGSESGTQFTLTISGVQSDDAATYYCQGYYNTGITGFGGGTEVVVK
notes: V regions on human Ig constant parts; also called AB27_70
B6: P018.S.04.A.E02 (antibody, V domains shown)
VH: QSVEESGGRLVTPGTPLTLTCTVSGFSLNNYDMNWVRQAPGKGLEWVGYIDTGGSAYYASWVNGRFTISKTSTTVELKMTSLTASDTATYFCARGYTHGYLWGQGTLVTVSS
VL: ALVMTQTPSSVSAAVGGTVTINCQASQNVYNNLAWYQQKPGQPPKLLIDSASTLASGVSSRFKGSGSGTEFTLTISDLESADAATYYCQSADWESSNFFWAFGGGTEVVVK
notes: V regions on human Ig constant parts; also called AB27_74
B7: P018.S.08.A.A01 (antibody, V domains shown)
VH: B6 VH with S60N, T97I
VL: B6 VL with K39R, K45E
notes: V regions on human Ig constant parts; also called AB27_135
B8: P018.S.09.A.A03 (antibody, V domains shown)
VH: QEQLVESGGGLVQPEGSLTLTCTASGFSFSSSYYMCWVRQAPGKGPEWIACIYTYSGDTDYANWAKGRFTISKTSSTTVTLQMTSLTAADTATYFCAKAGYGGYGYPIFNLWGPGTLVTVSS
VL: AFELTQTPSSVEAAVGGTVTIKCQASQSIGSSLAWYQQKPGQRPKLLMYYVSTLASGVSSRFKGSGSGTEFTLTISDLESADAATYYCQSYYGSGTTVFWAFGGGTEVVVK
notes: V regions on human Ig constant parts; also called AB27_144
B9: P018.S.06.A.F06 (antibody, V domains shown)
VH: QSVEESGGRLVTPGTPLTLTCAASGFSLNSYVMSWVRQAPGKGLEWIGYIDYGGAPYYASWAKGRFTISKTSTTVELKITSPTIEDTGTYFCARGGYGGYVLVTALWGPGTLVTVSS
VL: DIVMTQTPASVSEPVGGTVTIKCQASENIYSYLAWYQQKPGQPPKLLIYQASTLASGVSSRFKGSGSGTQFTLTISDLESADAATYYCQTYYGGSTYGNGFGGGTEVVVE
notes: V regions on human Ig constant parts; also called AB27_110
B10: P018.S.01.A.G06 (antibody, V domains shown)
VH: QSLEESGGGLFKPTDTLTLTCTVSGIDLSRYAMGWVRQAPGKGLEYIGIISVGGGTYYANWIKGRFTISSTSTTVDLKITSPTTEDTATYFCARSPYASTSASAFNLWGPGTLVTVSS
VL: AFELTQTPSSVEAAVGGTVTIKCQASQSIYSYLSWYQQKPGQPPKLLIYEASKLASGVPSRFSGSGSGTQFTLTISDLESADAATYYCQSYSNTNTNTFGGGTEVVVK
notes: V regions on human Ig constant parts; also called AB27_24
B11: P018.S.06.A.E04 (antibody, V domains shown)
VH: QEQLEESGGDLVQPEGSLTLTCTVSGFSFDSNYWICWVRQAPGKGPEWIACIMTGDGSIYYATWAKGRFTISKTSSTTVTLQMTSLTAADTATYFCARGYDGIHGGDNYGHVFNLWGPGTLVTVSS
VL: AFELTQTPFSVSAVVGGTVTINCQASENIYTLLAWYQQKSGQPPKLLIYRASTLTSGVPSRFKGSGSGTQFTLTISDLESADAATYYCQGYYVDSGNTFGGGTEVVVK
notes: V regions on human Ig constant parts; also called AB27_106
B12: P018.S.02.A.G04 (antibody, V domains shown)
VH: QSLEESGGRLVTPGGSLTLTCTVSGIDLSSYAMGWVRQAPGKGLEYIGIIYTSNRTHYATWAKGRFTISKSSTTVDLKATSLTTEDTATYFCGRYGRGSGGYYYGMDLWGPGTLVTVSS
VL: DIVMTQTPASVEAAVGGTVTIKCQASQSGDNYCSWYQQKPGQPPKLLIYQASKLTSGVPSRFRGSRSGTEYTLTISDLESADAATYYCQNYCAGSGVCLGIAFGGGTEVVVK
notes: V regions on human Ig constant parts; also called AB27_39
B13: P018.S.03.A.F03 (antibody, V domains shown)
VH: QSLEESGGRLVTPGGSLTLTCTVSGIDLSSYAMGWVRQAPGKGLEYLGIIYTSNRTHYATWAKGRFTISKTSSTTVDLKATSLTTEDTATYFCGRYGRGSGGYYYGMDLWGPGTLVTVSS
VL: B12 VL with N31D, P43R, Q50A, K53T, T55A, I101V
notes: V regions on human Ig constant parts; also called AB27_54
B14: P018.S.07.A.G04 (antibody, V domains shown)
VH: B12 VH with G15T, S16P, G48A, S53T
VL: B12 VL
notes: V regions on human Ig constant parts; also called AB27_130
B15: P018.S.10.A.E04 (antibody, V domains shown)
VH: QSLEESGGDLVKPGASLTLTCTASGFSFSSSYWICWVRQAPGKGLEWVACISAPGSGSTFDASWAKGRFTISKTSSTTVTLQMTSLTAADTATYFCARFYAGGSGDYFDLWGPGTLVTVSS
VL: QIVMTQTPSSTSEPVGGTVSIKCQASQNIGSYLAWYQQKPGQPPKVLIYTTSDLASGVPSRFKGSGSGTQFTLTISDLESDDAATYYCLGVYGYSSDDVAFGGGTEVVVK
notes: V regions on human Ig constant parts; also called AB27_177
B16: P018.S.09.A.A05 (antibody, V domains shown)
VH: QSVEESGGRLVTPGTPLTLTCTVSGFSLSSYAMSWVRQAPGKGLEWIGYIWSGGTTDYASWAKGRFTISKTSTTVDLKITDPTTEDTATYFCARGLGDRGSSDYYMPLKLWGQGTLVTVSS
VL: AAVLTQTPSPVSAAVGGTVTINCQASEDIESYLAWYQQKPGQPPKLLIYSTSNLASGVSSRFRGSGSGTQLTLTISDLESADAATYYCQCTYDGSSAVWGAFGGGTEVVVK
notes: V regions on human Ig constant parts; also called AB27_145
B17: P018.S.06.A.F03 (antibody, V domains shown)
VH: QSLEESGGDLVRPGASLTLTCTASGLSFSDRYWISWVRQAPGKGLEWIASIYTGSDGVADYATWAKGRVTISKTSSTTVTLQMTSLTAADTATYFCARDREYGSNTGVYSLWGPGTLVTVSS
VL: DVLMTQTPSSVSPAVGGTVTIKCQASQNIYSNLAWYQQKPGQRPKLLVYDASNLEYGVPSRFKGSGSGTEYTLTISDLESADAANYYCQCTYYGNNYITFGGGTEVVVR
notes: V regions on human Ig constant parts; also called AB27_108

These binders were tested against T1, CD27 protein (His-tagged, Sino …) (assay: ELISA on coated His-tagged CD27).
Also: test concentration or dose not given here.

ELISA [abs. corr.] | Binder
3.18 | B1
3.19 | B2
3.15 | B3
3.15 | B4
3.17 | B5
3.52 | B6
3.42 | B7
3.16 | B8
3.17 | B9
3.17 | B10
3.16 | B11
3.19 | B12
3.15 | B13
3.16 | B14
3.15 | B15
3.17 | B16
3.16 | B17

What follows are binders tested against T2, CD27 expressed on the cell surface … (assay: cellular binding assay, HT1080_CD27 cells).

Cellular binding assay [RFU] | Binder
338 | B1
333 | B2
289 | B3
395 | B4
292 | B5
463 | B6
448 | B7
360 | B8
326 | B9
313 | B10
281 | B11
196 | B12
223 | B13
177 | B14
280 | B15
214 | B16
304 | B17

What follows are binders tested against T2, CD27 expressed on the cell surface … (assay: cell-based or functional assay).

IL-8, cross-linked by F(ab')2 fragment [abs. corr.] | IL-8 [abs. corr.] | Binder
1.16 | 0.678 | B1
1.04 | 0.08 | B2
1.09 | 0.588 | B3
1.07 | 0.13 | B4
1.43 | 0.382 | B5
1.91 | 0.676 | B6
1.57 | 0.876 | B7
1.54 | 0.263 | B8
1.03 | 0.7 | B9
1.09 | 0.491 | B10
1.22 | 0.327 | B11
1.67 | 0.205 | B12
1.35 | 0.106 | B13
1.74 | 0.274 | B14
2.29 | 0.339 | B15
1.95 | 0.504 | B16
1.08 | 0.063 | B17
